This note sets out measurements from paper doi:10.1101/797449.

In the assay the target is dsRBD1 of human TAR RNA Binding Protein (TRBP2) (human). Put plainly: SEC-MALS. On the technique in general: Size exclusion chromatography separates by hydrodynamic size, large species first.

Broadly, the stoichiometry N is the number of molecules, sites or subunits per partner or assembly. Turning to “dsRBD1 of human TAR RNA Binding Protein (TRBP2) (domain or fragment)”, the population of tetramer relative to monomer was determined as 0.25 and the stoichiometry N was found to be 4.
